# US12144869B2, “Anti-ROR1 antibody conjugates, compositions comprising anti ROR1 antibody conjugates, and methods of making and using anti-ROR1 antibody conjugates” (Sutro Biopharma, Inc., priority 2022, dated 2024)
# Changes are numbered by the printed parent chain.
# B1: SRP2196 (antibody, V domains shown)
# VH: EVQLVESGGGLVQPGGSLRLSCAASGFNITGYYIHWVRQAPGKGLEWVGYISPNSGSTYYADSVKGRFTISADTSKNTAYLQMNSLRAEDTAVYYCARDSRRYVRPFDYWGQGTLVTVSS
# VL: QAVVTQESALTTSPGETVTLTCRSSTGAVTTSNYANWVQEKPDHLFTGLIGGTNKRAPGVPARFSGSLIGDKAALTITGAQTEDEAIYFCALWYSNLWVFGGGTKLTVL
# modifications: Synthetic: 1944-A07; VH; Synthetic: SP34 ; VL
# B2: SRP2196-B07 (antibody, V domains shown)
# VH: B1 VH with Y33H, K43E, S57A, K65E, N84H, A97T, P106G, F107W
# VL: B1 VL
# Tests used:
# TNBC PDX tumors = test: TNBC PDX models, single agent or combination with olaparib; format: in vivo, athymic nude mice; details: CTG-0437, CTG-1017, and CTG-2055; single agent olaparib 50 mg/kg p.o. qd×28
# Description: The activity of Conjugate 46 as a single agent or in combination with the PARP inhibitor olaparib was additionally assessed in TNBC PDX models. Briefly, PDX tumors, spanning varying levels of ROR1 expression and sensitivity to olaparib, were passaged in athymic nude Fox1^nu mice before being processed into tumor fragments for subcutaneous implantation into the hind flank of mice for study initiation. When tumors reached a volume of around 150-300 mm^3, the mice were randomized and enrolled into the study. Tumor-bearing mice were administered up to three weekly doses (qw×3) of Conjugate 46 i.v. at 5 mg/kg and up to twenty-eight daily doses (qd×28) of olaparib p.o. at 50 mg/kg.
# Combination treatment with Conjugate 46 and olaparib (50 mg/kg, qd×28) is conducted using a 2 mg/kg, qw×3 dosing regimen for Conjugate 46. The combination therapy is assessed in six TNBC PDX models as described in Example 26.
# [1] = system: Immunoglobulin (Ig), Frizzled (Fz), and Kringle (Kr) domains of ROR1; test: Epitope binning ELISA on ROR1 domains; format: binding; details: Table 6
# Description: Antibody binding was detected via HRP-conjugated anti-human Fc antibodies (Jackson Immunoresearch) and detection with SuperSignal ELISA Pico Chemiluminescent Substrate (Pierce).
# [2] = Differential scanning fluorimetry (protein thermal shift; TM1/TM2); format: physicochemical; details: Table 11; melting temperature of the Fab domain
# Outline: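 Protein at 0.2-2 mg/mL was mixed 1:1 with SYPRO Orange in PBS and heated to 95° C. at ~1.5° C. per minute while fluorescence was monitored, in quadruplicate. TM1 is Fc (CH2) unfolding and TM2 is Fab unfolding.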
# [3] = target: T1, HCT116 cells overexpressing human ROR1 (HCT116-hRor1) (Homo sapiens, UniProt Q01973); test: FACS cell binding on HCT116-hROR1; details: Table 11, SP34 light chain
# T1 construct: expressed in transfected cells; host or cells: HCT116 (clone HCT116-hRor1-D02)
# Description: Ntera-2, MDA-MB-231, MCF7, HCT116 and Mino cells were obtained from ATCC. HCT116-hRor1-D02 clone was generated by transfecting HCT116 cells with a plasmid containing human Ror1 cDNA sequence and selected for highest stable expression of hRor1 on the cell surface. MDA-MB-231, MCF7, HCT116 and HCT116-Ror1 cell were maintained in Ham's F-12 high glucose DMEM (50-50) (Cellgro-Mediatech; Manassas, VA) supplemented with 10% heat-inactivated fetal bovine serum (Hyclone; Thermo Scientific; Waltham, MA), 1% Penicillin/Streptomycin (Cellgro-Mediatech; Manassas, VA) and 2 mmol/L-glutamax (Life Technology; Carlsbad, CA). Mino cells were maintained in RPMI-1640 medium (Cellgro-Mediatech; Manassas, VA) supplemented with 20% heat-inactivated fetal bovine serum (Hyclone; Thermo Scientific; Waltham, MA), 1% Penicillin/Streptomycin (Cellgro-Mediatech; Manassas, VA) and 2 mmol/L-glutamax (Life Technology; Carlsbad, CA).
# Variants with expression levels>250 nM were tested in a fluorescence-activated cell sorting (FACS) cell-binding assay. […]
# A mix of ROR1 positive and negative cells was prepared as follows. […] Cells were then washed 2× with FACS buffer and fixed for 10 minutes in 200 μl PBS with 2% PFA prior to fluorescence detection. […] Mean Fluorescence Intensity of ROR1 antibody binding was analyzed using FlowJo® software (Tree Star, Inc.).
# human ROR1-Fz = target: T2, human ROR1-Fz (Homo sapiens, UniProt Q01973); test: Biacore off-rate and kinetic analysis, ROR1-Fz; format: binding; details: Table 11; SP34 light chain
# T2 construct: Frizzled (Fz, residues 165-305); His6 (C); purchased Acro Biosystems; host or cells: HEK293
# Outline: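 Anti-ROR1 antibodies captured on anti-human Fc surface; recombinant hROR1 ECD or ROR1-Fz analyte flowed at 100, 50, 25, 6.25, 1.5625 nM plus 0 nM, 180 s association, 600 s dissociation, 25° C., HBS-EP+ buffer. KD from ratio of rate constants, 1:1 Langmuir fit.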
molecule,measurement,setting,value
O=C(c1cc(Cc2n[nH]c(=O)c3ccccc23)ccc1F)N1CCN(C(=O)C2CC2)CC1 [olaparib],tumor growth suppression,TNBC PDX tumors,moderate tumor growth suppression
B1,Domain binding by ELISA,[1],Fz
B2,TM2 (° C.),[2],69 °C
same,HCT 116-hROR1 Binding Bmax (MFI),[3],15139 MFI
same,Kd,[3]; read-out: HCT 116-hROR1 Binding Kd,0.3 nM
same,Biacore human ROR1-Fz ka,human ROR1-Fz,185000 M⁻¹ s⁻¹
same,Biacore human ROR1-Fz kd,human ROR1-Fz,0.000269 s⁻¹
same,Kd,human ROR1-Fz,1.45 nM
